Measurements reported in FireProtDB (doi:10.1111/j.1432-1033.1994.tb18652.x).

B1: Guanyl-specific ribonuclease T1, P00651 (parent)
chain: MMYSKLLTLTTLLLPTALALPSLVERACDYTCGSNCYSSSDVSTAQAAGYQLHEDGETVGSNSYPHKYNNYEGFDFSVSSPYYEWPILSSGDVYSGGSPGADRVVFNENNQLAGVITHTGASGNNFVECT

Variants of: B1
Details: Aspergillus oryzae (strain ATCC 42149 / RIB 40), pH 6, Thermal, DSC, sodium acetate calcium acetate 20 mM 2 mM, Mops 50 mM, reversible: yes, structure 1RN1, whole UniProt chain shown; for ddG of mutation (higher = less stable) / heat capacity change of unfolding / unfolding free energy: 25 °C

Variant | ddG of mutation (higher = less stable) [kcal/mol] | heat capacity change of unfolding [kcal/mol/K] | unfolding free energy [kcal/mol] | Tm [°C] | change of melting temperature, mutant - wild type (higher = more stable) [°C] | unfolding enthalpy (calorimetric) [kcal/mol]
Y50W | -1.24 | 0.98 | 9.03 | 58.8 | 1.6 | 106
W85Y | 0.93 | 0.98 | 6.88 | 54.3 | -2.9 | 91.8
Y68W | 0.14 | 0.98 | 7.67 | 56.6 | -0.6 | 96.1
H118A | 0.62 | 0.98 | 7.19 |  |  | 
W85Y H118A | 1.53 | 0.98 | 6.26 | 53.2 | -4 | 87
H66T | 0.26 | 0.98 |  | 56.7 | -0.5 | 100
Y71W W85Y | 0.91 | 0.98 | 6.91 | 52.8 | -4.4 | 95.1
Y50W W85Y | -0.29 | 0.98 | 8.1 | 56.6 | -0.6 | 101
Y71W |  | 0.98 | 8.56 | 55.9 | -1.3 | 107
Y68W W85Y | 1.03 | 0.98 | 6.76 | 53.7 | -3.5 | 91.8
H66T W85Y | 0.93 | 0.98 | 6.88 | 53.9 | -3.3 | 92.5
